This assay addresses dopamine D1 receptor (D1R) (UniProt P21728 1-446). Briefly: cell-based or functional assay.

Sequence of dopamine D1 receptor (D1R) (P21728 whole entry): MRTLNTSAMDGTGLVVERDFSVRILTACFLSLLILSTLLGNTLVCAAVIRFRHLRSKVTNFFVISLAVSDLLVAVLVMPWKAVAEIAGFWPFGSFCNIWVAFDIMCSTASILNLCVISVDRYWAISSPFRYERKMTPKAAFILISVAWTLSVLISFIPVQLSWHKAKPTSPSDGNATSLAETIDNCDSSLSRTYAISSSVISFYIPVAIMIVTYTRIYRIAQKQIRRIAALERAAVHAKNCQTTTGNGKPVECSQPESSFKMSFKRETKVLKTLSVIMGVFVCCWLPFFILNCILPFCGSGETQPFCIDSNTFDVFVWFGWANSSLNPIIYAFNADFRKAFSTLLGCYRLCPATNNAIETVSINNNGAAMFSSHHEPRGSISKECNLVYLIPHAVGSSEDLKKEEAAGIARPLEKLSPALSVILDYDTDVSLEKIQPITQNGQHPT

B1: GHS-R1a fused to GFP2 (GHS-R1a-GFP2) (receptor, human, UniProt Q92847-1 1-366, looked up)
chain: MWNATPSEEPGFNLTLADLDWDASPGNDSLGDELLQLFPAPLLAGVTATCVALFVVGIAGNLLTMLVVSRFRELRTTTNLYLSSMAFSDLLIFLCMPLDLVRLWQYRPWNFGDLLCKLFQFVSESCTYATVLTITALSVERYFAICFPLRAKVVVTKGRVKLVIFVIWAVAFCSAGPIFVLVGVEHENGTDPWDTNECRPTEFAVRSGLLTVMVWVSSIFFFLPVFCLTVLYSLIGRKLWRRRRGDAVVGASLRDQNHKQTVKMLAVVVFAFILCWLPFHVGRYLFSKSFEPGSLEIAQISQYCNLVSFVLFYLSAAINPILYNIMSKKYRVAVFRLLGFEPFSQRKLSTLKDESSRAWTESSINT
As for B1, the “ghrelin-induced cAMP accumulation in HEK293T cells with GHS-R1a, D1R and increasing GHS-R1b cDNA; increase versus control at GHS-R1b/GHS-R1a cDNA ratios of 0, 0.3, 1 and 2 (26%, 72%, 46% and 15%)” value was 72 % increase versus control.
